# Ends that are not written are not given here. * marks the point of attachment. Biotin = O=C1N[C@H]2[C@H](CS[C@H]2CCCCC(=O)*)N1
# T1: GST-NeDLG PDZ domains 1-2 fusion protein (Mus musculus (Mouse), UniProt P70175 147-332)
# T1 construct: also called NeDLG1; not shown: glutathione S-transferase (GST) encoded by pGEX-3X
# T1 chain: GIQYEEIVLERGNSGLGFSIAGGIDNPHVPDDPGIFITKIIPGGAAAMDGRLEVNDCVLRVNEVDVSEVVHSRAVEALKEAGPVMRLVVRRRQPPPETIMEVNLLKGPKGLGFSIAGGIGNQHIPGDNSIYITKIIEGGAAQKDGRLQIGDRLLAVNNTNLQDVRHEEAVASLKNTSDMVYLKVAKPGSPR
# T2: GST-MINT3 PDZ domain fusion protein (human)
# T2 construct: also called human MINT3; not shown: glutathione S-transferase (GST) encoded by pGEX-3X
# T2 chain: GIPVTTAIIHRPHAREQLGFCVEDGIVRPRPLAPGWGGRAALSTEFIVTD
# T3: GST-MPP2 PDZ domain fusion protein
# T3 construct: also called maguk p55 subfamily member 2 (DLG2); MMP2; not shown: glutathione S-transferase (GST) encoded by pGEX-3X
# T3 chain: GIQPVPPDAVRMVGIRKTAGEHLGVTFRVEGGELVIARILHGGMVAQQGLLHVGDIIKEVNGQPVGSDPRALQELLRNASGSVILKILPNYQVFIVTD
# T4: GST-TAX2 PDZ domain fusion protein (human, UniProt O14908 129-216)
# T4 construct: not shown: glutathione S-transferase (GST) encoded by pGEX-3X
# T4 chain: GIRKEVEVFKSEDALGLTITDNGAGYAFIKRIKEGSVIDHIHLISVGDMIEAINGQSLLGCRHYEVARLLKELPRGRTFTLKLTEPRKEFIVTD
# T5: GST-DVL1 PDZ domain fusion protein (human)
# T5 construct: also called human dishevelled segment polarity protein homolog; not shown: glutathione S-transferase (GST) encoded by pGEX-3X
# T5 chain: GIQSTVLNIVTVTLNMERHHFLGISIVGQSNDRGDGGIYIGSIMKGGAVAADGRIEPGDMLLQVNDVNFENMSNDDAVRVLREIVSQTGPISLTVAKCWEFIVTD
# T6: GST-LIMK2 PDZ domain fusion protein (human, UniProt P53671 147-237)
# T6 construct: also called human LIM domain kinase 2; not shown: glutathione S-transferase (GST) encoded by pGEX-3X
# T6 sequence: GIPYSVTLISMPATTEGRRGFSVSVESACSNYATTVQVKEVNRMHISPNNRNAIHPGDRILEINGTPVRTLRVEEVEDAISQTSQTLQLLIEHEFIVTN
# T7: GST-SYN1a (alpha1-syntrophin) PDZ domain fusion protein (Homo sapiens (Human), UniProt Q13424 84-179)
# T7 construct: also called SYN 1 α; not shown: glutathione S-transferase (GST) encoded by pGEX-3X
# T7 sequence: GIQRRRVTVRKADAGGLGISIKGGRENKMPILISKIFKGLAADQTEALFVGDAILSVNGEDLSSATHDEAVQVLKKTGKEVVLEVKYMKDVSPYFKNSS
# Target: T1, GST-NeDLG PDZ domains 1-2 fusion protein
# Assay: A/G assays
row,Binder,binding result
1,Biotin-EVICYIEKPGVETLEDSVF [CDW125 (IL5R) C-terminal peptide AA28L],no binding
2,Biotin-PSWRRSSLSESENATSLTTF [BLR-1 C-terminal peptide AA45L],no binding
3,Biotin-LERTSSVSPSTAEPELSIVF [CC CKR-3 C-terminal peptide AA43L],no binding
4,Biotin-PYGTAMEKAQLKPPATSDA [CD49E (alpha-4) C-terminal peptide AA11L],no binding
5,Biotin-TSGTGHNQTRALRASESGI [CD97 (CD55L) C-terminal peptide AA14L],no binding
6,Biotin-SVFSIPTLWSPWPPSSSSQL (also called CD3-η) [CD3n C-terminal peptide AA4L],no binding
7,Biotin-SMQPDNSSDSDYDLHGAQRL [CD5 C-terminal peptide AA49L],no binding
8,Biotin-DTPSSSYTQSTMDHDLHDAL [CC CKR-4 C-terminal peptide AA44L],no binding
9,"Biotin-HKAEIHAQPSDKERLTSDA [CD49F (Aform, alpha6) C-terminal peptide AA12L]",no binding

# Target: T2, GST-MINT3 PDZ domain fusion protein
# Assay: A/G assays
row,Binder,binding result
1,Biotin-EVICYIEKPGVETLEDSVF [CDW125 (IL5R) C-terminal peptide AA28L],no binding
2,Biotin-PSWRRSSLSESENATSLTTF [BLR-1 C-terminal peptide AA45L],no binding
3,Biotin-LERTSSVSPSTAEPELSIVF [CC CKR-3 C-terminal peptide AA43L],no binding
4,Biotin-PYGTAMEKAQLKPPATSDA [CD49E (alpha-4) C-terminal peptide AA11L],no binding
5,Biotin-TSGTGHNQTRALRASESGI [CD97 (CD55L) C-terminal peptide AA14L],no binding
6,Biotin-SVFSIPTLWSPWPPSSSSQL (also called CD3-η) [CD3n C-terminal peptide AA4L],no binding
7,Biotin-SMQPDNSSDSDYDLHGAQRL [CD5 C-terminal peptide AA49L],no binding
8,Biotin-DTPSSSYTQSTMDHDLHDAL [CC CKR-4 C-terminal peptide AA44L],no binding
9,"Biotin-HKAEIHAQPSDKERLTSDA [CD49F (Aform, alpha6) C-terminal peptide AA12L]",no binding

# Target: T3, GST-MPP2 PDZ domain fusion protein
# Assay: A/G assays
row,Binder,binding result
1,Biotin-EVICYIEKPGVETLEDSVF [CDW125 (IL5R) C-terminal peptide AA28L],no binding
2,Biotin-PSWRRSSLSESENATSLTTF [BLR-1 C-terminal peptide AA45L],no binding
3,Biotin-LERTSSVSPSTAEPELSIVF [CC CKR-3 C-terminal peptide AA43L],no binding
4,Biotin-PYGTAMEKAQLKPPATSDA [CD49E (alpha-4) C-terminal peptide AA11L],no binding
5,Biotin-TSGTGHNQTRALRASESGI [CD97 (CD55L) C-terminal peptide AA14L],no binding
6,Biotin-SVFSIPTLWSPWPPSSSSQL (also called CD3-η) [CD3n C-terminal peptide AA4L],no binding
7,Biotin-SMQPDNSSDSDYDLHGAQRL [CD5 C-terminal peptide AA49L],no binding
8,Biotin-DTPSSSYTQSTMDHDLHDAL [CC CKR-4 C-terminal peptide AA44L],no binding
9,"Biotin-HKAEIHAQPSDKERLTSDA [CD49F (Aform, alpha6) C-terminal peptide AA12L]",no binding

# Target: T4, GST-TAX2 PDZ domain fusion protein
# Assay: A/G assays
row,Binder,binding result
1,Biotin-EVICYIEKPGVETLEDSVF [CDW125 (IL5R) C-terminal peptide AA28L],no binding
2,Biotin-PSWRRSSLSESENATSLTTF [BLR-1 C-terminal peptide AA45L],no binding
3,Biotin-LERTSSVSPSTAEPELSIVF [CC CKR-3 C-terminal peptide AA43L],no binding
4,Biotin-PYGTAMEKAQLKPPATSDA [CD49E (alpha-4) C-terminal peptide AA11L],no binding
5,Biotin-TSGTGHNQTRALRASESGI [CD97 (CD55L) C-terminal peptide AA14L],no binding
6,Biotin-SVFSIPTLWSPWPPSSSSQL (also called CD3-η) [CD3n C-terminal peptide AA4L],no binding
7,Biotin-SMQPDNSSDSDYDLHGAQRL [CD5 C-terminal peptide AA49L],no binding
8,Biotin-DTPSSSYTQSTMDHDLHDAL [CC CKR-4 C-terminal peptide AA44L],no binding
9,"Biotin-HKAEIHAQPSDKERLTSDA [CD49F (Aform, alpha6) C-terminal peptide AA12L]",no binding

# Target: T5, GST-DVL1 PDZ domain fusion protein
# Assay: A/G assays
row,Binder,binding result
1,Biotin-EVICYIEKPGVETLEDSVF [CDW125 (IL5R) C-terminal peptide AA28L],no binding
2,Biotin-PSWRRSSLSESENATSLTTF [BLR-1 C-terminal peptide AA45L],no binding
3,Biotin-LERTSSVSPSTAEPELSIVF [CC CKR-3 C-terminal peptide AA43L],no binding
4,Biotin-PYGTAMEKAQLKPPATSDA [CD49E (alpha-4) C-terminal peptide AA11L],no binding
5,Biotin-TSGTGHNQTRALRASESGI [CD97 (CD55L) C-terminal peptide AA14L],no binding
6,Biotin-SVFSIPTLWSPWPPSSSSQL (also called CD3-η) [CD3n C-terminal peptide AA4L],no binding
7,Biotin-SMQPDNSSDSDYDLHGAQRL [CD5 C-terminal peptide AA49L],no binding
8,Biotin-DTPSSSYTQSTMDHDLHDAL [CC CKR-4 C-terminal peptide AA44L],no binding
9,"Biotin-HKAEIHAQPSDKERLTSDA [CD49F (Aform, alpha6) C-terminal peptide AA12L]",no binding

# Target: T6, GST-LIMK2 PDZ domain fusion protein
# Assay: A/G assays
row,Binder,binding result
1,Biotin-EVICYIEKPGVETLEDSVF [CDW125 (IL5R) C-terminal peptide AA28L],no binding
2,Biotin-PSWRRSSLSESENATSLTTF [BLR-1 C-terminal peptide AA45L],no binding
3,Biotin-LERTSSVSPSTAEPELSIVF [CC CKR-3 C-terminal peptide AA43L],no binding
4,Biotin-PYGTAMEKAQLKPPATSDA [CD49E (alpha-4) C-terminal peptide AA11L],no binding
5,Biotin-TSGTGHNQTRALRASESGI [CD97 (CD55L) C-terminal peptide AA14L],no binding
6,Biotin-SVFSIPTLWSPWPPSSSSQL (also called CD3-η) [CD3n C-terminal peptide AA4L],no binding
7,Biotin-SMQPDNSSDSDYDLHGAQRL [CD5 C-terminal peptide AA49L],no binding
8,Biotin-DTPSSSYTQSTMDHDLHDAL [CC CKR-4 C-terminal peptide AA44L],no binding
9,"Biotin-HKAEIHAQPSDKERLTSDA [CD49F (Aform, alpha6) C-terminal peptide AA12L]",no binding

# Target: T7, GST-SYN1a (alpha1-syntrophin) PDZ …
# Assay: A/G assays
row,Binder,binding result
1,Biotin-EVICYIEKPGVETLEDSVF [CDW125 (IL5R) C-terminal peptide AA28L],no binding
2,Biotin-PSWRRSSLSESENATSLTTF [BLR-1 C-terminal peptide AA45L],no binding
3,Biotin-LERTSSVSPSTAEPELSIVF [CC CKR-3 C-terminal peptide AA43L],no binding
4,Biotin-PYGTAMEKAQLKPPATSDA [CD49E (alpha-4) C-terminal peptide AA11L],no binding
5,Biotin-TSGTGHNQTRALRASESGI [CD97 (CD55L) C-terminal peptide AA14L],no binding
6,Biotin-SVFSIPTLWSPWPPSSSSQL (also called CD3-η) [CD3n C-terminal peptide AA4L],no binding
7,Biotin-SMQPDNSSDSDYDLHGAQRL [CD5 C-terminal peptide AA49L],no binding
8,Biotin-DTPSSSYTQSTMDHDLHDAL [CC CKR-4 C-terminal peptide AA44L],no binding
9,"Biotin-HKAEIHAQPSDKERLTSDA [CD49F (Aform, alpha6) C-terminal peptide AA12L]",no binding

# Source: US6942981
